Data taken from US20250269048A1 (BIVICTRIX, published 2025).

T1: human CD7 on cells (human, UniProt P09564 26-240)
T1 sequence (looked up): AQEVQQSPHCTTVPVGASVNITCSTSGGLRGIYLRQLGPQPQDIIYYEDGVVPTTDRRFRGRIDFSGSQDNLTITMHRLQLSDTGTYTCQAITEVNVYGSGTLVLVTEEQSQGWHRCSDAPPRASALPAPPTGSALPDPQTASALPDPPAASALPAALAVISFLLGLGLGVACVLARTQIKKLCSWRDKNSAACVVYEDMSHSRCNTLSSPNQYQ

T2: human CD7 (human, UniProt P09564 26-180, limits assumed)
T2 construct: The construct is not described
T2 sequence (looked up): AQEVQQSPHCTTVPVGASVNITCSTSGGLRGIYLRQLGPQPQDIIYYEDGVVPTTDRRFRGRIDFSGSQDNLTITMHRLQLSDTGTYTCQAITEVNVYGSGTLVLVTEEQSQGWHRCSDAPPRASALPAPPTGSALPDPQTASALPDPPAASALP

B1: BVX100-MMAE (bispecific antibody)
heavy: QVQLQESGAELVKPGASVKLSCKASGYTFTSYWMHWVKQRPGQGLEWIGKINPSNGRTNYNEKFKSKATLTVDKSSSTAYMQLSSLTSEDSAVYYCARGGVYYDLYYYALDYWGQGTTVTVSSASTKGPSVFPLAPSSKSTSGGTAALGCLVKDYFPEPVTVSWNSGALTSGVHTFPAVLQSSGLYSLSSVVTVPSSSLGTQTYCCNVNHKPSNTKVDKKVEPKSCDKT
light: DIELTQSPATLSVTPGDSVSLSCRASQSISNNLHWYQQKSHESPRLLIKSASQSISGIPSRFSGSGSGTDFTLSINSVETEDFGMYFCQQSNSWPYTFGGGTKLEIKRTVAAPSVFIFPPSDEQLKSGTASVVCLLNNFYPREAKVQWKVDNALQSGNSQESVTEQDSKDSTYSLSSTLTLSKADYEKHKVYACEVTHQGLSSPVTKSFNRGEC
VH: EVQLVQSGAEVKKPGSSVKVSCKASGYTITDSNIHWVRQAPGQSLEWIGYIYPYNGGTDYNQKFKNRATLTVDNPTNTAYMELSSLRSEDTAFYYCVNGNPWLAYWGQGTLVTVSS
VL: DIQLTQSPSTLSASVGDRVTIICRASESLDNYGIRFLTWFQQKPGKAPKLLMYAASNQGSGVPSRFSGSGSGTEFTLTISSLQPDDFATYYCQQTKEVPWSFGQGTKLEIK
B2: BVX110-MMAE (bispecific antibody)
heavy: QVQLQESGAELVKPGASVKLSCKASGYTFTSYWMHWVKQRPGQGLEWIGKINPSNGGTNYNEKFKSKATLTVDKSSSTAYMQLSSLTSEDSAVYYCARGGVYYDLYYYALDYWGQGTTVTVSSASTKGPSVFPLAPSSKSTSGGTAALGCLVKDYFPEPVTVSWNSGALTSGVHTFPAVLQSSGLYSLSSVVTVPSSSLGTQTYCCNVNHKPSNTKVDKKVEPKSCDKT
light: DIELTQSPATLSVTPGDSVSLSCRASQSISNNLHWYQQKSHESPRLLIKSASQSISGIPSRFSGSGSGTDFTLSINSVETEDFGMYFCQQSNSWPYTFGGGTKLEIKRTVAAPSVFIFPPSDEQLKSGTASVVCLLNNFYPREAKVQWKVDNALQSGNSQESVTEQDSKDSTYSLSSTLTLSKADYEKHKVYACEVTHQGLSSPVTKSFNRGEC
VH: EVQLVQSGAEVKKPGSSVKVSCKASGYTITDSNIHWVRQAPGQSLEWIGYIYPYNGGTDYNQKFKNRATLTVDNPTNTAYMELSSLRSEDTAFYYCVNGNPWLAYWGQGTLVTVSS
VL: DIQLTQSPSTLSASVGDRVTIICRASESLDNYGIRFLTWFQQKPGKAPKLLMYAASNQGSGVPSRFSGSGSGTEFTLTISSLQPDDFATYYCQQTKEVPWSFGQGTKLEIK
B3: BVX130-MMAE (bispecific antibody)
heavy: QVQLQESGAELVKPGASVKLSCKASGYTFTSYWMHWVKQRPGQGLEWIGKINPSNGRTNYNEKFKSKATLTVDKSSSTAYMQLSSLTSEDSAVYYCARGGVYYALYYYALDYWGQGTTVTVSSASTKGPSVFPLAPSSKSTSGGTAALGCLVKDYFPEPVTVSWNSGALTSGVHTFPAVLQSSGLYSLSSVVTVPSSSLGTQTYCCNVNHKPSNTKVDKKVEPKSCDKT
light: DIELTQSPATLSVTPGDSVSLSCRASQSISNNLHWYQQKSHESPRLLIKSASQSISGIPSRFSGSGSGTDFTLSINSVETEDFGMYFCQQSNSWPYTFGGGTKLEIKRTVAAPSVFIFPPSDEQLKSGTASVVCLLNNFYPREAKVQWKVDNALQSGNSQESVTEQDSKDSTYSLSSTLTLSKADYEKHKVYACEVTHQGLSSPVTKSFNRGEC
VH: EVQLVQSGAEVKKPGSSVKVSCKASGYTITDSNIHWVRQAPGQSLEWIGYIYPYNGGTDYNQKFKNRATLTVDNPTNTAYMELSSLRSEDTAFYYCVNGNPWLAYWGQGTLVTVSS
VL: DIQLTQSPSTLSASVGDRVTIICRASESLDNYGIRFLTWFQQKPGKAPKLLMYAASNQGSGVPSRFSGSGSGTEFTLTISSLQPDDFATYYCQQTKEVPWSFGQGTKLEIK
B4: BVX150-MMAE (bispecific antibody)
heavy: QVQLQESGAELVKPGASVKLSCKASGYTFTSYWMHWVKQRPGQGLEWIGKINPSNGKTNYNEKFKSKATLTVDKSSSTAYMQLSSLTSEDSAVYYCARGGVYYDLYYAALDYWGQGTTVTVSSASTKGPSVFPLAPSSKSTSGGTAALGCLVKDYFPEPVTVSWNSGALTSGVHTFPAVLQSSGLYSLSSVVTVPSSSLGTQTYCCNVNHKPSNTKVDKKVEPKSCDKT
light: DIELTQSPATLSVTPGDSVSLSCRASQSISNNLHWYQQKSHESPRLLIKSASQSISGIPSRFSGSGSGTDFTLSINSVETEDFGMYFCQQSNSWPYTFGGGTKLEIKRTVAAPSVFIFPPSDEQLKSGTASVVCLLNNFYPREAKVQWKVDNALQSGNSQESVTEQDSKDSTYSLSSTLTLSKADYEKHKVYACEVTHQGLSSPVTKSFNRGEC
VH: EVQLVQSGAEVKKPGSSVKVSCKASGYTITDSNIHWVRQAPGQSLEWIGYIYPYNGGTDYNQKFKNRATLTVDNPTNTAYMELSSLRSEDTAFYYCVNGNPWLAYWGQGTLVTVSS
VL: DIQLTQSPSTLSASVGDRVTIICRASESLDNYGIRFLTWFQQKPGKAPKLLMYAASNQGSGVPSRFSGSGSGTEFTLTISSLQPDDFATYYCQQTKEVPWSFGQGTKLEIK
B5: BVX120-MMAE (bispecific antibody)
heavy: QVQLQESGAELVKPGASVKLSCKASGYTFTSYWMHWVKQRPGQGLEWIGKINPSNGKTNYNEKFKSKATLTVDKSSSTAYMQLSSLTSEDSAVYYCARGGVYYDLYYYALDYWGQGTTVTVSSASTKGPSVFPLAPSSKSTSGGTAALGCLVKDYFPEPVTVSWNSGALTSGVHTFPAVLQSSGLYSLSSVVTVPSSSLGTQTYCCNVNHKPSNTKVDKKVEPKSCDKT
light: DIELTQSPATLSVTPGDSVSLSCRASQSISNNLHWYQQKSHESPRLLIKSASQSISGIPSRFSGSGSGTDFTLSINSVETEDFGMYFCQQSNSWPYTFGGGTKLEIKRTVAAPSVFIFPPSDEQLKSGTASVVCLLNNFYPREAKVQWKVDNALQSGNSQESVTEQDSKDSTYSLSSTLTLSKADYEKHKVYACEVTHQGLSSPVTKSFNRGEC
VH: EVQLVQSGAEVKKPGSSVKVSCKASGYTITDSNIHWVRQAPGQSLEWIGYIYPYNGGTDYNQKFKNRATLTVDNPTNTAYMELSSLRSEDTAFYYCVNGNPWLAYWGQGTLVTVSS
VL: DIQLTQSPSTLSASVGDRVTIICRASESLDNYGIRFLTWFQQKPGKAPKLLMYAASNQGSGVPSRFSGSGSGTEFTLTISSLQPDDFATYYCQQTKEVPWSFGQGTKLEIK
B6: BVX100 (bispecific antibody)
heavy: QVQLQESGAELVKPGASVKLSCKASGYTFTSYWMHWVKQRPGQGLEWIGKINPSNGRTNYNEKFKSKATLTVDKSSSTAYMQLSSLTSEDSAVYYCARGGVYYDLYYYALDYWGQGTTVTVSSASTKGPSVFPLAPSSKSTSGGTAALGCLVKDYFPEPVTVSWNSGALTSGVHTFPAVLQSSGLYSLSSVVTVPSSSLGTQTYCCNVNHKPSNTKVDKKVEPKSCDKT
light: DIELTQSPATLSVTPGDSVSLSCRASQSISNNLHWYQQKSHESPRLLIKSASQSISGIPSRFSGSGSGTDFTLSINSVETEDFGMYFCQQSNSWPYTFGGGTKLEIKRTVAAPSVFIFPPSDEQLKSGTASVVCLLNNFYPREAKVQWKVDNALQSGNSQESVTEQDSKDSTYSLSSTLTLSKADYEKHKVYACEVTHQGLSSPVTKSFNRGEC
VH: EVQLVQSGAEVKKPGSSVKVSCKASGYTITDSNIHWVRQAPGQSLEWIGYIYPYNGGTDYNQKFKNRATLTVDNPTNTAYMELSSLRSEDTAFYYCVNGNPWLAYWGQGTLVTVSS
VL: DIQLTQSPSTLSASVGDRVTIICRASESLDNYGIRFLTWFQQKPGKAPKLLMYAASNQGSGVPSRFSGSGSGTEFTLTISSLQPDDFATYYCQQTKEVPWSFGQGTKLEIK
notes: also called CD33-PP-1 WT/CD7-PP-1 WT
B7: BVX160 (bispecific antibody)
heavy: QVQLQESGAELVKPGASVKLSCKASGYTFTSYWMHWVKQRPGQGLEWIGKINPSNGRTNYNEKFKSKATLTVDKSSSTAYMQLSSLTSEDSAVYYCARGGVYYDLYYAALDYWGQGTTVTVSSASTKGPSVFPLAPSSKSTSGGTAALGCLVKDYFPEPVTVSWNSGALTSGVHTFPAVLQSSGLYSLSSVVTVPSSSLGTQTYCCNVNHKPSNTKVDKKVEPKSCDKT
light: DIELTQSPATLSVTPGDSVSLSCRASQSISNNLHWYQQKSHESPRLLIKSASQSISGIPSRFSGSGSGTDFTLSINSVETEDFGMYFCQQSNSWPYTFGGGTKLEIKRTVAAPSVFIFPPSDEQLKSGTASVVCLLNNFYPREAKVQWKVDNALQSGNSQESVTEQDSKDSTYSLSSTLTLSKADYEKHKVYACEVTHQGLSSPVTKSFNRGEC
VH: EVQLVQSGAEVKKPGSSVKVSCKASGYTITDSNIHWVRQAPGQSLEWIGYIYPYNGGTDYNQKFKNRATLTVDNPTNTAYMELSSLRSEDTAFYYCVNGNPWLAYWGQGTLVTVSS
VL: DIQLTQSPSTLSASVGDRVTIICRASESLDNYGIRFLTWFQQKPGKAPKLLMYAASNQGSGVPSRFSGSGSGTEFTLTISSLQPDDFATYYCQQTKEVPWSFGQGTKLEIK
notes: bi-Fab; also called CD33-PP-1 WT/CD7-PP-13

Tests used:
human CD33 on cells = human CD33 on cells (human, UniProt P20138 18-364); assay: cell-based or functional assay
human CD7 on cells = target: T1, human CD7 on cells; assay: cell-based or functional assay
human CD7 [1] = target: T2, human CD7; assay: SPR (Kd); value of the CD7 arm 7-PP-1 WT
human CD33 = target: T3, human CD33 (human, UniProt P20138 18-259, limits assumed); assay: SPR (Kd); value of the CD33 arm 33-PP-1 WT
T3 construct: The construct is not described

human CD7 [2] = target: T2, human CD7; assay: SPR (Kd); value of the CD7 arm 7-PP-13

Sequence of human CD33 on cells (P20138 18-364): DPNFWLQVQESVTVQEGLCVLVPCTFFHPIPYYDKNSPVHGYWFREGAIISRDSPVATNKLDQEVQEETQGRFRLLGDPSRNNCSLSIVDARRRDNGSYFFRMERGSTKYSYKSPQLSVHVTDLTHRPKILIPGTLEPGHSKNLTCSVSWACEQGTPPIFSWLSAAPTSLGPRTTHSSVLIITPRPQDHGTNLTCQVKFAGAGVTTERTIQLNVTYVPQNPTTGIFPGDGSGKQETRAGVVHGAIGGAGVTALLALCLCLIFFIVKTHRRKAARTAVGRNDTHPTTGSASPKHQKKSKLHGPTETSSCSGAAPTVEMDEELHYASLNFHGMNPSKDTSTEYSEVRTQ
T3 sequence (P20138 18-259 limits assumed): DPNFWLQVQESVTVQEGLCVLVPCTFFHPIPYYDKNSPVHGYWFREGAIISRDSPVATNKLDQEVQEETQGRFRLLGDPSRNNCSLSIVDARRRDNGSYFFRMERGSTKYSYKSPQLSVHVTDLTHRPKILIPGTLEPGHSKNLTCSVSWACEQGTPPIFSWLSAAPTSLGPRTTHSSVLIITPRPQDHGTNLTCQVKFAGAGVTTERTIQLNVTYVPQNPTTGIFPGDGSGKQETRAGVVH

Binder | EC50 (nM), cytotoxicity (MTS, 96 h) on MV4.11 cells (CD7-/CD33+) (human CD33 on cells) | EC50 (nM), cytotoxicity (MTS, 96 h) on SHI-1 cells (CD7-/CD33+) (human CD33 on cells) | EC50 (nM), cytotoxicity (MTS, 96 h) on Jurkat cells (CD7+/CD33-) (human CD7 on cells) | Fold reduction in binding affinity vs 7-PP-1 WT (human CD7 [1]) | Fold reduction in binding affinity vs 33-PP-1 WT (human CD33) | Fold reduction in binding affinity vs 7-PP-1 WT (human CD7 [2])
B1 | 10.8 nM | 2.26 nM | 0.92 nM | – | – | –
B2 | 27 nM | 11.4 nM | 4.52 nM | – | – | –
B3 | 24.1 nM | 17.5 nM | 5.83 nM | – | – | –
B4 | 9.19 nM | 5.23 nM | 1.6 nM | – | – | –
B5 | 16.5 nM | 7.21 nM | 1.52 nM | – | – | –
B6 | – | – | – | 0 fold | 0 fold | –
B7 | – | – | – | – | 0 fold | 20.3 fold
